Consider one molecule from article PMC6615639, “A broadly neutralizing germline-like human monoclonal antibody against dengue virus envelope domain III” (PLoS Pathogens, 2019).

What is called Kd is the constant that tells how readily two partners part at equilibrium. Higher therefore signals lower affinity. Broadly, the koff is the first-order rate constant of dissociation. High values mean fast dissociation, low ones slow dissociation. Usually kon stands for a measure of how fast the partners come together. A low value points to slower complex formation.

Test [1] concerns the target T1, DENV-2 envelope protein domain III (DIII), fused with IgG1 Fc and a C-terminal Avi-tag (Dengue virus type 2, strain ; …).
T1 construct: also called DENV-2 DIII; DENV2 DIII
T1 chain: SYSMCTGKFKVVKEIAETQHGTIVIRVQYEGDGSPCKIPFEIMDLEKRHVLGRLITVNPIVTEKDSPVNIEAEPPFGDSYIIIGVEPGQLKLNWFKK
Briefly: SPR. The settings on record: both partners purified.

The target of test [2] is T2, DENV-4 envelope protein domain III (DIII), fused with IgG1 Fc and a C-terminal Avi-tag (Dengue virus type 4, strain ; …, UniProt P09866).
T2 construct: also called DENV-4 DIII; DENV4 DIII
Briefly: SPR. To be noted: both partners purified.

In test [3] the target is T3, DENV-3 envelope protein domain III (DIII), fused with IgG1 Fc and a C-terminal Avi-tag (Dengue virus type 3, strain ; …, UniProt Q99D35).
T3 construct: also called DENV-3 DIII; DENV3 DIII
Briefly: SPR. The settings on record: both partners purified.

The target of test [4] is T4, DENV-1 envelope protein domain III (DIII), fused with IgG1 Fc and a C-terminal Avi-tag (Dengue virus type 1, strain ; …, UniProt B6DXD2).
T4 construct: also called DENV-1 DIII; DENV1 DIII
Briefly: SPR. The settings on record: both partners purified.

Test [5] addresses T1, DENV-2 envelope protein domain III …. Briefly: cell-based or functional assay.
In test [6] the target is T2, DENV-4 envelope protein domain III …. Briefly: cell-based or functional assay.
The target of test [7] is T3, DENV-3 envelope protein domain III …. Briefly: cell-based or functional assay.
For test [8], the target named is T4, DENV-1 envelope protein domain III …. Briefly: cell-based or functional assay.

B1: m366.6 scFv-Fc (scFv, V domains shown)
VH: QLQLQESGGGLVQPGGSLRLSCAASGFTFSSHSMNWIRQAPGKRLEWVSSISSSSSYIYYADSVRGRFTISRDNAKNSLYLQMDSLRAEDTAVYYCARYMAGIWTFDIWGQGTMVTVSS
VL: SYELTQPPSVSVAPGKTASISCGGDNIGRKSVHWFQQKPGQAPVLVLYDDSDRPSGIPARFSGSNSGNTATLTISGVEAGDEADYYCQVWARSSDLPNWVFGGGTKLTVL
notes: also called mAb m366.6
As for B1, the Kd was 0.29 nM in test [1], 1.9 nM in test [2], 0.27 nM in test [3] and 0.78 nM in test [4]. Moreover, the off-rate (koff) was found to be 0.00025 s⁻¹ in test [1], 0.00062 s⁻¹ in test [2], 0.00018 s⁻¹ in test [3] and 0.00025 s⁻¹ in test [4]. Further, the on-rate (kon) was 960000 M⁻¹ s⁻¹ in test [1], 330000 M⁻¹ s⁻¹ in test [2], 660000 M⁻¹ s⁻¹ in test [3] and 320000 M⁻¹ s⁻¹ in test [4]. Besides, the other in test [5] was determined as 2.4 µg/mL; in test [6], 0.36 µg/mL; in test [7], 0.85 µg/mL; in test [8] it was 22 µg/mL.
